We go through one molecule from patent publication US20100129369A1 (Eli Lilly, published 2010).

Test in all cases: cell-based or functional assay
For experiment [1], the target named is T1, human c-Met (human, UniProt P08581 25-1390).
Experiment [2] deals with T1, human c-Met. The source holds these as a separate data set.
Experiment [3] has as its target T1, human c-Met. The source holds these as a separate data set.
Experiment [4] addresses T1, human c-Met. This is another data set of the same source.
For experiment [5], the target named is T1, human c-Met. The source holds these as a separate data set.

T1 sequence (P08581 25-1390): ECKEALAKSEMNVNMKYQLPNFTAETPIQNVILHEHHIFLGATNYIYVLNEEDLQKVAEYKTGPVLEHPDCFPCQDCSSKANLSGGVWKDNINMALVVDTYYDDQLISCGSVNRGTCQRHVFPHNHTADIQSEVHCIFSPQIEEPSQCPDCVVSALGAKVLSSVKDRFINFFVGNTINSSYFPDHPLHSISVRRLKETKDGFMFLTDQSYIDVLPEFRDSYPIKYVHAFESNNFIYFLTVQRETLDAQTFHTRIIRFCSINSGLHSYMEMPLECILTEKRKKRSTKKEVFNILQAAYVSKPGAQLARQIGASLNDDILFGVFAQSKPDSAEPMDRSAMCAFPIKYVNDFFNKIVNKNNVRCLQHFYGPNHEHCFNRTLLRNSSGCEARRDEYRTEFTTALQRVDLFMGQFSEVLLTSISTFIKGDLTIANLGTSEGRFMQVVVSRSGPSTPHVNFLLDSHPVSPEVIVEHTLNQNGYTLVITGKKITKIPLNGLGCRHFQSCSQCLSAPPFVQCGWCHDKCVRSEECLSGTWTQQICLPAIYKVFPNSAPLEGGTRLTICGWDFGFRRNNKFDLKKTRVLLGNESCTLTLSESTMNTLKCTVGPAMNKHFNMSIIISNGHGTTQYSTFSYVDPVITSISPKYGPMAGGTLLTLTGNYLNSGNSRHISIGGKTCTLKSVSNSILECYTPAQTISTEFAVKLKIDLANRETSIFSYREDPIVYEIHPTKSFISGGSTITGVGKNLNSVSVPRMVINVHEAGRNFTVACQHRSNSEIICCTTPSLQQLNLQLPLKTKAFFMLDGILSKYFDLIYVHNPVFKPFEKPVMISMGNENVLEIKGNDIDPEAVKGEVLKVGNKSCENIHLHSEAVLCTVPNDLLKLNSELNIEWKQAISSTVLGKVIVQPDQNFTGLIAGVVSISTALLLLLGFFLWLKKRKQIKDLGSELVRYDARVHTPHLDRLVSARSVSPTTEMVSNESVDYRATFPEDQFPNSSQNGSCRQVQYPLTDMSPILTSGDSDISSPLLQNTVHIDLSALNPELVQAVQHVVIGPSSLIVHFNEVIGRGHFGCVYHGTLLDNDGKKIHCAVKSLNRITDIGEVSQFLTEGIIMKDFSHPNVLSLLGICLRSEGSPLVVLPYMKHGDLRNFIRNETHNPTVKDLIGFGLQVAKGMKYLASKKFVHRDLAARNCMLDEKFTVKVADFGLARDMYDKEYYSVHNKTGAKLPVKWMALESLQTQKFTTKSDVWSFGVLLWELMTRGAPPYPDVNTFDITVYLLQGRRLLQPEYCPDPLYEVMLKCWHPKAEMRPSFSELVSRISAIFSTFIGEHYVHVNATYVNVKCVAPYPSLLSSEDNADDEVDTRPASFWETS

B1: C8-6 (antibody, human IgG2, kappa, V domains shown)
VH: QVQLVQSGAEVKKPGASVKVSCKASGYTFTDYYMHWVRQAPGQGLEWMGRVNPNRGGTTYNQKFEGRVTMTTDTSTSTAYMELRSLRSDDTAVYYCARTNWLDYWGQGTTVTVSS
VL: DIQMTQSPSSLSASVGDRVTITCSVSSSVSSIYLHWYQQKPGKAPKLLIYSTSNLASGVPSRFSGSGSGTDFTLTISSLQPEDFATYYCIQYSGYPLTFGGGTKVEIKR
For the molecule B1, in the experiment with human c-Met [1], the “3H-Thymidine Incorporation in Caki-1 Cells in the Absence of HGF (AVG CPM), antibody dose 0.1 ng/mL” value was 16100 CPM; the “3H-Thymidine Incorporation in Caki-1 Cells in the Absence of HGF (AVG CPM), antibody dose 0.4 ng/mL” value came to 14600 CPM; the “3H-Thymidine Incorporation in Caki-1 Cells in the Absence of HGF (AVG CPM), antibody dose 2.6 ng/mL” value was 14100 CPM; the “3H-Thymidine Incorporation in Caki-1 Cells in the Absence of HGF (AVG CPM), antibody dose 15.4 ng/mL” value was found to be 13700 CPM. Further, in the experiment with human c-Met [1], the “3H-Thymidine Incorporation in Caki-1 Cells in the Absence of HGF (AVG CPM), antibody dose 92.6 ng/mL” value is 12800 CPM; the “3H-Thymidine Incorporation in Caki-1 Cells in the Absence of HGF (AVG CPM), antibody dose 555.6 ng/mL” value is 13500 CPM; the “3H-Thymidine Incorporation in Caki-1 Cells in the Absence of HGF (AVG CPM), antibody dose 3333.3 ng/mL” value worked out at 13200 CPM; the “3H-Thymidine Incorporation in Caki-1 Cells in the Absence of HGF (AVG CPM), antibody dose 20000.0 ng/mL” value came out at 13200 CPM. In the experiment with human c-Met [2], the “3H-Thymidine Incorporation in Primary Human Hepatocytes in the Absence of HGF (average), dose 0.0032 ug/mL” value is 736; the “3H-Thymidine Incorporation in Primary Human Hepatocytes in the Absence of HGF (average), dose 0.016 ug/mL” value was found to be 770; the “3H-Thymidine Incorporation in Primary Human Hepatocytes in the Absence of HGF (average), dose 0.08 ug/mL” value was found to be 792; the “3H-Thymidine Incorporation in Primary Human Hepatocytes in the Absence of HGF (average), dose 0.4 ug/mL” value turned out to be 802. In the experiment with human c-Met [2], the “3H-Thymidine Incorporation in Primary Human Hepatocytes in the Absence of HGF (average), dose 2 ug/mL” value stood at 892 and the “3H-Thymidine Incorporation in Primary Human Hepatocytes in the Absence of HGF (average), dose 10 ug/mL” value came out at 1040. In addition, in the experiment with human c-Met [3], the “Tubular Morphogenesis Agonist activity (fold stimulation) in HepG2 cells, antibody 50 ug/ml” value worked out at 1.2 fold stimulation. Besides, the “Percent of DU145 Cells in Colonies (scatter assay), antibody 20 ug/mL” value with human c-Met [4] is 23.3%. In the experiment with human c-Met [5], the “Staurosporine-Induced Apoptosis in Caki-1 Cells, Average A450 nm, antibody dose 3 ng/mL” value worked out at 1.09 A450 nm; the “Staurosporine-Induced Apoptosis in Caki-1 Cells, Average A450 nm, antibody dose 30 ng/mL” value came to 1.02 A450 nm; the “Staurosporine-Induced Apoptosis in Caki-1 Cells, Average A450 nm, antibody dose 300 ng/mL” value came out at 0.97 A450 nm; the “Staurosporine-Induced Apoptosis in Caki-1 Cells, Average A450 nm, antibody dose 3000 ng/mL” value was 0.92 A450 nm. In addition, in the experiment with human c-Met [5], the “Staurosporine-Induced Apoptosis in Caki-1 Cells, Average A450 nm, antibody dose 30000 ng/mL” value was found to be 0.96 A450 nm.
